Measured values taken from patent publication US20250152742A1, “COMPOSITIONS AND METHODS FOR NEUROLOGICAL DISEASES” (Trames Bio, Inc., priority 2022, published 2025).
Numbering of substitutions follows the chain as printed. In names and notes the source's numbering stands.

Tested on: engineered chimeric receptor SEQ ID NO: 33 and its mutants (human α7-nAChR ligand binding domain / human GlyRα1 ion pore domain) in Lenti-X 293T cells
Assay: YFP fluorescence quenching anion reporter plate reader assay (percent quench, EC50)
Assay type: cell-based
Conditions: for YFP fluorescence quenching using CNL001 (percent quench): receptor named in row; for YFP fluorescence quenching using Facinicline, 30 nM fac: ligand Facinicline 30 nM; for YFP fluorescence quenching using Facinicline, 300 nM fac: ligand Facinicline 300 nM; for YFP fluorescence quenching using Facinicline, 30 uM fac: ligand Facinicline 30 uM; for YFP fluorescence quenching using TC-6987, 1 uM tc6987: ligand TC-6987 1 uM; for YFP fluorescence quenching using TC-6987, 10 uM tc6987: ligand TC-6987 10 uM; for YFP fluorescence quenching using TC-6987, 500 uM tc6987: ligand TC-6987 500 uM; for YFP fluorescence quenching using Varenicline, 3 nM var: ligand Varenicline 3 nM; for YFP fluorescence quenching using Varenicline, 30 nM var: ligand Varenicline 30 nM; for YFP fluorescence quenching using Varenicline, 300 nM var: ligand Varenicline 300 nM; for YFP fluorescence quenching using Varenicline, 500 nM var: ligand Varenicline 500 nM; for YFP fluorescence quenching using Varenicline, 1 uM var: ligand Varenicline 1 uM
Procedure, shortened: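 Percent quench compares mean YFP signal over the final 10 s with the 15 s baseline before ligand, added in iodide-containing extracellular solution (pH 7.2). Cells were LX293T carrying a YFP anion reporter, transiently transfected with the channel construct; plates were preincubated 30 min at 37 °C.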

[1] = 1 nM CNL001, first column so headed
[2] = 1 nM CNL001, second column so headed
[3] = 3 nM brd (TC-5619/Bradanicline)
[4] = 10 nM CNL001, first column so headed
[5] = 10 nM CNL001, second column so headed
[6] = 30 nM brd (TC-5619/Bradanicline)
[7] = 50 nM CNL001, first column so headed
[8] = 50 nM CNL001, second column so headed
[9] = 100 nM CNL001, first column so headed
[10] = 100 nM CNL001, second column so headed
[11] = 300 nM brd (TC-5619/Bradanicline)
[12] = 1 uM CNL001, first column so headed
[13] = 1 uM CNL001, second column so headed

B1: CODA333: engineered receptor: L131S in SEQ ID NO: 33 (protein)
chain: MRCSPGGVWLALAASLLHVSLQGEFQRKLYKELVKNYNPLERPVANDSQPLTVYFSLSLLQIMDVDEKNQVLTTNIWLQMSWTDHYLQWNVSEYPGVKTVRFPDGQIWKPDILLYNSADERFDATFHTNVSVNSSGHCQYLPPGIFKSSCPMDLKNFPMDVQTCKLKFGSWSYGGWSLDLQMQEADISGYIPNGEWDLVGIPGKRSERFYECCKEPYPDVTFTVTMRRRMGYYLIQMYIPSLLIVILSWISFWINMDAAPARVGLGITTVLTMTTQSSGSRASLPKVSYVKAIDIWMAVCLLFVFSALLEYAAVNFVSRQHKELLRFRRKRRHHKSPMLNLFQEDEAGEGRFNFSAYGMGPACLQAKDGISVKGANNSNTTNPPPAPSKSPEEMRKLFIQRAKKIDKISRIGFPMAFLIFNMFYWIIYKIVRREDVHNQ
modifications: synthetic sequence of chimeric LGIC
- YFP fluorescence quenching using CNL001 (percent quench) [1]: 76.165%
- YFP fluorescence quenching using CNL001 (percent quench) [2]: 78.463%
- YFP fluorescence quenching using TC-5619/Bradanicline (percent quench) (1 nM brd (TC-5619/Bradanicline)): −0.85%
- YFP fluorescence quenching using TC-5619/Bradanicline (percent quench) [3]: −2.05%
- YFP fluorescence quenching using CNL001 (percent quench) [4]: 79.349%
- YFP fluorescence quenching using CNL001 (percent quench) [5]: 78.238%
- YFP fluorescence quenching using TC-5619/Bradanicline (percent quench) (10 nM brd (TC-5619/Bradanicline)): −2.8%
- YFP fluorescence quenching using TC-6683 (percent quench) (30 nM TC-6683): −23.88%
- YFP fluorescence quenching using TC-5619/Bradanicline (percent quench) [6]: −2.07%
- YFP fluorescence quenching using CNL001 (percent quench) [7]: 80.221%
- YFP fluorescence quenching using CNL001 (percent quench) [8]: 81.789%
- YFP fluorescence quenching using ABT-126 (percent quench) (50 nM abt (ABT-126)): −20.99%
- YFP fluorescence quenching using CNL001 (percent quench) [9]: 81.855%
- YFP fluorescence quenching using CNL001 (percent quench) [10]: 80.766%
- YFP fluorescence quenching (percent quench) (100 nM CNL002): −15.44%
- YFP fluorescence quenching using ABT-126 (percent quench) (100 nM abt (ABT-126)): −16.21%
- YFP fluorescence quenching using AZD-0328 (percent quench) (100 nM azd0328): 38.49%
- YFP fluorescence quenching using TC-5619/Bradanicline (percent quench) (100 nM brd (TC-5619/Bradanicline)): 30.34%
- YFP fluorescence quenching using TC-6683 (percent quench) (300 nM TC-6683): −21.46%
- YFP fluorescence quenching using ABT-126 (percent quench) (300 nM abt (ABT-126)): −13.34%
- YFP fluorescence quenching using AZD-0328 (percent quench) (300 nM azd0328): 67.13%
- YFP fluorescence quenching using TC-5619/Bradanicline (percent quench) [11]: 50.56%
- YFP fluorescence quenching using CNL001 (percent quench) [12]: 81.707%
- YFP fluorescence quenching using CNL001 (percent quench) [13]: 82.665%
- YFP fluorescence quenching (percent quench) (1 uM CNL002): 15.21%
- YFP fluorescence quenching using ABT-126 (percent quench) (1 uM abt (ABT-126)): 4.96%
- YFP fluorescence quenching using TC-5619/Bradanicline (percent quench) (1 uM brd (TC-5619/Bradanicline)): 72.42%
- YFP fluorescence quenching using TC-6683 (percent quench) (3 uM TC-6683): −21.07%
- YFP fluorescence quenching (percent quench) (10 uM ach (acetylcholine)): −10.11%
- YFP fluorescence quenching using TC-6683 (percent quench) (30 uM TC-6683): −16.15%
- YFP fluorescence quenching using AZD-0328 (percent quench) (30 uM azd0328): 80.61%
- YFP fluorescence quenching using TC-6683 (percent quench) (100 uM TC-6683): −18.96%
- YFP fluorescence quenching (percent quench) (100 uM ach (acetylcholine)): −10.05%
- YFP fluorescence quenching (percent quench) (1 mM ach (acetylcholine)): 32.11%
- YFP fluorescence quenching (percent quench) (3 mM ach (acetylcholine)): 57.37%
- YFP fluorescence quenching using Facinicline, 30 nM fac: 6.27
- YFP fluorescence quenching using Facinicline, 300 nM fac: 69.8
- YFP fluorescence quenching using Facinicline, 10 uM fac (ligand Facinicline 10 uM): 80.07
- YFP fluorescence quenching using Facinicline, 30 uM fac: 81.35
- YFP fluorescence quenching using TC-6987, 1 uM tc6987: −3.87
- YFP fluorescence quenching using TC-6987, 3 uM tc6987 (ligand TC-6987 3 uM): −20.2
- YFP fluorescence quenching using TC-6987, 5 uM tc6987 (ligand TC-6987 5 uM): −15.25
- YFP fluorescence quenching using TC-6987, 10 uM tc6987: 4.92
- YFP fluorescence quenching using TC-6987, 30 uM tc6987 (ligand TC-6987 30 uM): 14.75
- YFP fluorescence quenching using TC-6987, 50 uM tc6987 (ligand TC-6987 50 uM): 21.33
- YFP fluorescence quenching using TC-6987, 100 uM tc6987 (ligand TC-6987 100 uM): 29.7
- YFP fluorescence quenching using TC-6987, 300 uM tc6987 (ligand TC-6987 300 uM): 20.79
- YFP fluorescence quenching using TC-6987, 500 uM tc6987: 44.37
- YFP fluorescence quenching using Varenicline, 3 nM var (first column): −4.782
- YFP fluorescence quenching using Varenicline, 3 nM var (second column): 1.048
- YFP fluorescence quenching using Varenicline, 30 nM var (first column): 2.084
- YFP fluorescence quenching using Varenicline, 30 nM var (second column): 5.022
- YFP fluorescence quenching using Varenicline, 300 nM var (first column): 12.162
- YFP fluorescence quenching using Varenicline, 300 nM var (second column): 12.979
- YFP fluorescence quenching using Varenicline, 500 nM var (first column): 29.238
- YFP fluorescence quenching using Varenicline, 500 nM var (second column): 25.614
- YFP fluorescence quenching using Varenicline, 1 uM var (first column): 43.863
- YFP fluorescence quenching using Varenicline, 1 uM var (second column): 39.346

B2: CODA334: engineered receptor: L131Q in SEQ ID NO: 33 (protein)
chain: B1 chain with S131Q
modifications: synthetic sequence of chimeric LGIC
- YFP fluorescence quenching using CNL001 (percent quench) [1]: 76.165%
- YFP fluorescence quenching using CNL001 (percent quench) [2]: 78.463%
- YFP fluorescence quenching using TC-5619/Bradanicline (percent quench) [3]: 41.92%
- YFP fluorescence quenching using CNL001 (percent quench) [4]: 79.349%
- YFP fluorescence quenching using CNL001 (percent quench) [5]: 78.238%
- YFP fluorescence quenching using TC-6683 (percent quench) (30 nM TC-6683): −17.99%
- YFP fluorescence quenching using TC-5619/Bradanicline (percent quench) [6]: 63.65%
- YFP fluorescence quenching using CNL001 (percent quench) [7]: 80.221%
- YFP fluorescence quenching using CNL001 (percent quench) [8]: 81.789%
- YFP fluorescence quenching using ABT-126 (percent quench) (50 nM abt (ABT-126)): 23.65%
- YFP fluorescence quenching using CNL001 (percent quench) [9]: 82%
- YFP fluorescence quenching using CNL001 (percent quench) [10]: 80.766%
- YFP fluorescence quenching (percent quench) (100 nM CNL002): 49.9%
- YFP fluorescence quenching using ABT-126 (percent quench) (100 nM abt (ABT-126)): 61.83%
- YFP fluorescence quenching using AZD-0328 (percent quench) (100 nM azd0328): 80.55%
- YFP fluorescence quenching using TC-6683 (percent quench) (300 nM TC-6683): −23.26%
- YFP fluorescence quenching using ABT-126 (percent quench) (300 nM abt (ABT-126)): 76.44%
- YFP fluorescence quenching using AZD-0328 (percent quench) (300 nM azd0328): 83.15%
- YFP fluorescence quenching using TC-5619/Bradanicline (percent quench) [11]: 64.85%
- YFP fluorescence quenching using CNL001 (percent quench) [12]: 81.707%
- YFP fluorescence quenching using CNL001 (percent quench) [13]: 82.665%
- YFP fluorescence quenching (percent quench) (1 uM CNL002): 80.72%
- YFP fluorescence quenching using ABT-126 (percent quench) (1 uM abt (ABT-126)): 77.68%
- YFP fluorescence quenching using TC-6683 (percent quench) (3 uM TC-6683): −18.84%
- YFP fluorescence quenching (percent quench) (10 uM ach (acetylcholine)): −2.63%
- YFP fluorescence quenching (percent quench) (30 uM CNL002): 80.97%
- YFP fluorescence quenching using TC-6683 (percent quench) (30 uM TC-6683): −16.92%
- YFP fluorescence quenching (percent quench) (30 uM ach (acetylcholine)): 30.06%
- YFP fluorescence quenching using AZD-0328 (percent quench) (30 uM azd0328): 82.53%
- YFP fluorescence quenching using TC-6683 (percent quench) (100 uM TC-6683): −15.59%
- YFP fluorescence quenching (percent quench) (100 uM ach (acetylcholine)): 71.27%
- YFP fluorescence quenching (percent quench) (1 mM ach (acetylcholine)): 79.66%
- YFP fluorescence quenching (percent quench) (3 mM ach (acetylcholine)): 74.9%
- YFP fluorescence quenching using Facinicline, 30 nM fac: 83.07
- YFP fluorescence quenching using Facinicline, 100 nM fac (ligand Facinicline 100 nM): 85.36
- YFP fluorescence quenching using Facinicline, 300 nM fac: 84.19
- YFP fluorescence quenching using Facinicline, 30 uM fac: 82.75
- YFP fluorescence quenching using TC-6987, 1 uM tc6987: 74.1
- YFP fluorescence quenching using TC-6987, 10 uM tc6987: 81.7
- YFP fluorescence quenching using TC-6987, 500 uM tc6987: 80.18
- YFP fluorescence quenching using Varenicline, 3 nM var (first column): −5.192
- YFP fluorescence quenching using Varenicline, 3 nM var (second column): −4.327
- YFP fluorescence quenching using Varenicline, 30 nM var (first column): −0.688
- YFP fluorescence quenching using Varenicline, 30 nM var (second column): 0.672
- YFP fluorescence quenching using Varenicline, 300 nM var (first column): 75.189
- YFP fluorescence quenching using Varenicline, 300 nM var (second column): 74.923
- YFP fluorescence quenching using Varenicline, 500 nM var (first column): 79.048
- YFP fluorescence quenching using Varenicline, 500 nM var (second column): 80.337
- YFP fluorescence quenching using Varenicline, 1 uM var (first column): 79.766
- YFP fluorescence quenching using Varenicline, 1 uM var (second column): 76.836
